{"source": "patent US20190351068A1", "about": "“COMPOSITIONS AND METHODS FOR DRUG DELIVERY” (priority 2017, published 2019)", "key": {"[1]": {"set-up": "species or system rhesus macaque monkey", "details": "rhesus monkey, in vivo", "description": "To evaluate the CNS delivery efficiency, Rituximab nanoparticles were administrated to non-human primates (rhesus macaque monkey) at a dose of 5.0 mg/kg via intravenous injection. After intravenous administration, plasma was collected at 1, 2, 3, 5, 7, 10, 14 and 17 days post injection, and CSF was collected at day 3, 10 and 17. […] In sharp contrast, Rituximab in CSF was undetectable by week 2 for the monkey administrated with native Rituximab."}, "choline transporter": {"test_system": "choline transporter", "assay": "Brain uptake of Cy5.5-labeled n(Nimo) after pre-injection of choline-transporter inhibitor", "type": "in vivo, mice", "details": "1.25, 2.5 or 5 μg/kg intraperitoneal 20 mins before n(Nimo); 4 hours after injection", "description": "The BBB penetration of the nanocapsules can be attributed to their transcytosis mediated by the choline and acetylcholine receptors. Glioma-bearing mice were intraperitoneally injected with 1.25, 2.5 or 5 μg/kg of choline-transporter inhibitor, hemicholinium-3 (HC-3), 20 mins prior to the injection of Cy5.5-labeled n(Nimo). FIGS. 8A and 8B depict the in-vivo bioluminescent images of the orthotopic U87-EGFRwt glioma xenograft mice and the ex-vivo fluorescent images of the brains 4 hours after injection. […] This method provides an effective antibody delivery strategy for brain tumor treatment."}, "[2]": {"assay": "Brain fluorescence after intravenous injection of fluorescence-labeled BSA conjugates", "type": "in vivo, Balb/c mice", "details": "5.0 mg/kg intravenous, one day after injection", "description": "Protein conjugates were synthesized by conjugating polymer, poly(2-methacryloyloxyethyl phosphorylcholine) (PMPC), to fluorescence-labeled bovine serum albumin (BSA). The BSA conjugates were injected to Balb/c mice via intravenously at a dose of 5.0 mg/kg. One date after the intravenous injection, fluorescence intensity of the mouse brains was compared."}}}
{"compound": "Rituximab", "values": [{"measurement": "Rituximab in CSF", "setting": "[1]", "result": "undetectable"}, {"measurement": "CSF concentration compared with n-Rituximab", "setting": "[1]; iv", "result": "significantly lower CSF concentration"}]}
{"compound": "C[N+]1(C)CCOC(O)(c2ccc(-c3ccc(C4(O)C[N+](C)(C)CCO4)cc3)cc2)C1.[Br-].[Br-]", "note": "(centres unmarked) [HC-3, hemicholinium-3]", "values": [{"measurement": "effect on fluorescent intensity of glioma-bearing brain after Cy5.5-labeled n(Nimo)", "setting": "choline transporter", "result": "significantly reduces the fluorescent intensity"}]}
{"compound": "BSA conjugates: poly(2-methacryloyloxyethyl phosphorylcholine) (PMPC) conjugated to fluorescence-labeled bovine serum albumin", "values": [{"measurement": "brain fluorescence intensity relative to mice injected with PBS", "setting": "[2]", "result": 6, "unit": "times"}, {"measurement": "brain fluorescence intensity relative to mice injected with native BSA", "setting": "[2]", "result": 4, "unit": "times"}]}
